pKd: −log10 of the molar value. Like-named read-outs stand apart in the source and are kept apart here. A value given as a limit tells only on which side of the number the result lay.

Data on 42 substances can be found in patent US5777073.

Assay [1] addresses CRF receptors on rat anterior pituitary cells (rat).
Assay [2] has the same target. The source holds these as a separate data set.
For assay [3] the target is unchanged. This is another data set of the same source.
Assay [4] shares this target. This is another data set of the same source.
Assay [5] shares this target. This is another data set of the same source.
Assay [6] has the same target. This is another data set of the same source.
The target is the same in assay [7]. The source holds these as a separate data set.
For assay [8] the target is unchanged. This is another data set of the same source.
For assay [9] the target is unchanged. This is another data set of the same source.
The target is the same in assay [10]. This is another data set of the same source.
The target is the same in assay [11]. This is another data set of the same source.
For assay [12] the target is unchanged. The source holds these as a separate data set.
For assay [13] the target is unchanged. This is another data set of the same source.
The target is the same in assay [14]. The source holds these as a separate data set.
Assay [15] shares this target. This is another data set of the same source.
The target is the same in assay [16]. This is another data set of the same source.
Assay [17] shares this target. This is another data set of the same source.
The target is the same in assay [18]. This is another data set of the same source.
For assay [19] the target is unchanged. The source holds these as a separate data set.
The target is the same in assay [20]. This is another data set of the same source.
Assay [21] has the same target. This is another data set of the same source.
Assay [22] shares this target. The source holds these as a separate data set.
The target is the same in assay [23]. This is another data set of the same source.
Assay [24] shares this target. This is another data set of the same source.
Assay [25] shares this target. This is another data set of the same source.
For assay [26] the target is unchanged. This is another data set of the same source.
The target is the same in assay [27]. This is another data set of the same source.
Assay [28] shares this target. The source holds these as a separate data set.
For assay [29] the target is unchanged. The source holds these as a separate data set.
The target is the same in assay [30]. The source holds these as a separate data set.
Assay [31] has the same target. The source holds these as a separate data set.
Assay [32] shares this target. This is another data set of the same source.
The target is the same in assay [33]. The source holds these as a separate data set.
For assay [34] the target is unchanged. The source holds these as a separate data set.
The target is the same in assay [35]. The source holds these as a separate data set.
The target is the same in assay [36]. The source holds these as a separate data set.
The target is the same in assay [37]. This is another data set of the same source.
For assay [38] the target is unchanged. This is another data set of the same source.
Assay [39] has the same target. The source holds these as a separate data set.
The target in assay [40] is CRF-RA. Put plainly: binding assay.
In assay [41] the target is hCRF-RA1 (human) (UniProt P34998). Put plainly: radioligand binding assay.

In assay [1], “(bicyclo 20-23, 30-33) D-Phe^12, Nle^21,38, D-Ala^22, LyS^23,33, Glu^30, D-His^32 !-r/hCRF(12-41) (peptide)” came in with an in vitro biopotency: inhibition of ACTH secretion (times the Standard) of 8.61.

The substance “(bicyclo 20-23, 30-33) D-Phe^12, Nle^21,38, Lys^23,33, Glu^30 !-r/hCRF(12-41) (peptide)” gave an in vitro biopotency: inhibition of ACTH secretion (times the Standard) in assay [2] of 8.3.

In the case of “(cyclo 29-32) D-Leu^11, Nle^17, Glu^29, D-Ala^31, Lys^32 !-Sauvagine (11-40) (peptide)”, the in vitro biopotency: inhibition of ACTH secretion (times the Standard) in assay [3] is 15.

Take “(cyclo 29-32) D-Leu^11, Nle^17, Glu^29, Lys^32 !-sauvagine(11-40) (peptide)”: the in vitro biopotency: inhibition of ACTH secretion (times the Standard) in assay [4] worked out at 22.

In [5], “(cyclo 29-33) D-Phe^12, Nle^21,38, Glu^29, D-His^32, Lys^33 -r/hCRF(12-41) (peptide)” showed an in vitro biopotency: inhibition of ACTH secretion (times the Standard) of 26.

In assay [6], “(cyclo 30-33) Ac-Asp^9, D-Phe^2, Nle^21,38, CML^27, Glu^30, D-His^32, Lys^33 -r/hCRF(9-41) (peptide)” returned an in vitro biopotency: inhibition of ACTH secretion (times Peptide IV) of 2.22.

“(cyclo 30-33) Ac-Asp^9, D-Phe^12, CML^18,27, Nle^21,38, Glu^30, Lys^33 -r/hCRF(9-41) (peptide)”: the in vitro biopotency: inhibition of ACTH secretion (times the Standard) in assay [7] turned out to be 13.

As for “(cyclo 30-33) Ac-Asp^9, D-Phe^12, Nle^21,38, CML^27, Glu^30, Lys^33 !-r/hCRF(9-41) (peptide)”, in assay [8], the in vitro biopotency: inhibition of ACTH secretion (times Peptide IV) was 1.2.

Regarding “(cyclo 30-33) Ac-Asp^9, D-Phe^12, Nle^21,38, Glu^30, Lys^33 !-r/hCRF(9-41) (peptide)”, the in vitro biopotency: inhibition of ACTH secretion (times the Standard) in [9] worked out at 172.

In assay [10], “(cyclo 30-33) Ac-Asp^9, D-Phe^12, Nle^21, CML^27,37, Glu^30, Lys^33 -r/hCRF(9-41) (peptide)” came in with an in vitro biopotency: inhibition of ACTH secretion (times the Standard) of 1.4.

“(cyclo 30-33) Ac-D-Phe^12, Nle^21,38, CML^27, Glu^30, D-His^32, Lys^33 !-r/hCRF(12-41) (peptide)” gave an in vitro biopotency: inhibition of ACTH secretion (times the Standard) in assay [11] of 43.

“(cyclo 30-33) Ac-D-Phe^12, Nle^21,38, CML^27, Glu^30, Lys^33 !-r/hCRF(12-41) (peptide)” had an in vitro biopotency: inhibition of ACTH secretion (times Peptide IV) in [12] of 1.65.

In [13], “(cyclo 30-33) Ac-D-Phe^12, Nle^21,38, Glu^30, D-His^32, Lys^33 !-r/hCRF(12-41) (peptide)” returned an in vitro biopotency: inhibition of ACTH secretion (times Peptide IV) of 1.24.

In [9], “(cyclo 30-33) Ac-D-Phe^12, Nle^21,38, Glu^30, Lys^33 !-r/hCRF(12-41) (peptide)” gave an in vitro biopotency: inhibition of ACTH secretion (times the Standard) of 36.5.

Turning to “(cyclo 30-33) Ac-Leu^10, D-Phe^12, Nle^21,38, Glu^30, Lys^33 !-r/hCRF(10-41) (peptide)”, the in vitro biopotency: inhibition of ACTH secretion (times the Standard) in assay [9] was 34.

Turning to “(cyclo 30-33) Ac-Thr^11, D-Phe^12, CML^15,27, Nle^21,38, Glu^30, D-His^32, Lys^33 -r/hCRF(11-41) (peptide)”, in assay [14], the in vitro biopotency: inhibition of ACTH secretion (times Peptide IV) was found to be 1.11.

In [15], “(cyclo 30-33) Ac-Thr^11, D-Phe^12, CML^18,27, Nle^21,38, Glu^30, D-His^32, Lys^33 !-r/hCRF(11-41) (peptide)” had an in vitro biopotency: inhibition of ACTH secretion (times Peptide IV) of 1.94.

“(cyclo 30-33) Ac-Thr^11, D-Phe^12, Nle^21,38, CML^27, Glu^30, D-His^32, Lys^33 !-r/hCRF(11-41) (peptide)”: the in vitro biopotency: inhibition of ACTH secretion (times Peptide IV) in [16] is 1.4.

In [17], “(cyclo 30-33) Ac-Thr^11, D-Phe^12, Nle^21,38, Glu^30, D-His^32, Lys^33 !-r/hCRF(11-41) (peptide)” had an in vitro biopotency: inhibition of ACTH secretion (times Peptide IV) of 3.08.

“(cyclo 30-33) Ac-Thr^11, D-Phe^12, Nle^21,38, Glu^30, Lys^33 !-r/hCRF(11-41) (peptide)” returned an in vitro biopotency: inhibition of ACTH secretion (times the Standard) in assay [9] of 64.

Take “(cyclo 30-33) D-Phe^12, CML^14, Nle^21,38, Glu^30, D-His^32, Lys^33 !-r/hCRF(12-41) (peptide)”: the in vitro biopotency: inhibition of ACTH secretion (times the Standard) in assay [18] amounted to 15.

In turn, “(cyclo 30-33) D-Phe^12, CML^15, Nle^21,38, Glu^30, D-His^32, Lys^33 !-r/hCRF(12-41) (peptide)” had an in vitro biopotency: inhibition of ACTH secretion (times the Standard) in assay [19] of 20.3.

With “(cyclo 30-33) D-Phe^12, CML^15, Nle^21,38, Glu^30, imBzlD-His^32, Lys^33 !-r/hCRF (12-41) (peptide)”, the in vitro biopotency: inhibition of ACTH secretion (times the Standard) in assay [20] stood at 23.5.

As for “(cyclo 30-33) D-Phe^12, CML^19, Nle^21,38, Glu^30, D-His^32, Lys^33 !-r/hCRF(12-41) (peptide)”, in assay [21], the in vitro biopotency: inhibition of ACTH secretion (times the Standard) stood at 4.5.

“(cyclo 30-33) D-Phe^12, Nle^18,21, Glu^30, D-Ala^32, Lys^33 !-Carp Urotensin I (12-41) (peptide)” registered an in vitro biopotency: inhibition of ACTH secretion (times Peptide IV) in [22] of 0.831.

As to “(cyclo 30-33) D-Phe^12, Nle^18,21, Glu^30, Lys^33 !-Sucker Urotensin I(12-41) (peptide)”, the in vitro biopotency: inhibition of ACTH secretion (times Peptide IV) in assay [23] worked out at 1.32.

As to “(cyclo 30-33) D-Phe^12, Nle^21,38, CML^27, Glu^30, D-His^32, Lys^33 !-r/hCRF(11-41) (peptide)”, the in vitro biopotency: inhibition of ACTH secretion (times Peptide IV) in assay [24] was determined as 1.26.

In [25], “(cyclo 30-33) D-Phe^12, Nle^21,38, CML^27, Glu^30, D-His^32, Lys^33 !-r/hCRF(12-41) (peptide)” gave an in vitro biopotency: inhibition of ACTH secretion (times the Standard) of 53.6.

As for “(cyclo 30-33) D-Phe^12, Nle^21,38, Glu^30, D-2Nal^32, Lys^33 !-r/hCRF(12-41) (peptide)”, the in vitro biopotency: inhibition of ACTH secretion (times the Standard) in [26] is 18.

The substance “(cyclo 30-33) D-Phe^12, Nle^21,38, Glu^30, D-Arg^32, Lys^33 !-r/hCRF(12-41) (peptide)” came in with an in vitro biopotency: inhibition of ACTH secretion (times the Standard) in assay [27] of 60.

As for “(cyclo 30-33) D-Phe^12, Nle^21,38, Glu^30, D-Glu^32, Lys^33 !-r/hCRF(12-41) (peptide)”, the in vitro biopotency: inhibition of ACTH secretion (times the Standard) in [28] turned out to be 10.

Turning to “(cyclo 30-33) D-Phe^12, Nle^21,38, Glu^30, D-His^32, Lys^33 !-r/hCRF(11-41) (peptide)”, the in vitro biopotency: inhibition of ACTH secretion (times Peptide IV) in [29] turned out to be 0.78.

On to “(cyclo 30-33) D-Phe^12, Nle^21,38, Glu^30, D-His^32, Lys^33 !-r/hCRF(12-41) (peptide)”, for which the in vitro biopotency: inhibition of ACTH secretion (times the Standard) in assay [30] came out at 80.3.

“(cyclo 30-33) D-Phe^12, Nle^21,38, Glu^30, D-His^32, Lys^33, CML^37 !-r/hCRF(12-41) (peptide)” registered an in vitro biopotency: inhibition of ACTH secretion (times the Standard) in assay [31] of 16.

On to “(cyclo 30-33) D-Phe^12, Nle^21,38, Glu^30, Lys^33 !-r/hCRF(9-41) (peptide)”, for which, in assay [32], the in vitro biopotency: inhibition of ACTH secretion (times the Standard) was 33.8.

Consider “(cyclo 30-33) D-Phe^12, Nle^21,38, Glu^30, Lys^33 !-r/hCRF(10-41) (peptide)”, for which, in assay [33], the in vitro biopotency: inhibition of ACTH secretion (times the Standard) is 31.6.

With “(cyclo 30-33) D-Phe^12, Nle^21,38, Glu^30, Lys^33 !-r/hCRF(11-41) (peptide)”, the in vitro biopotency: inhibition of ACTH secretion (times the Standard) in assay [34] turned out to be 40.3.

In assay [35], “(cyclo 30-33) D-Phe^12, Nle^21,38, Glu^30, Lys^33 !-r/hCRF(12-41) (peptide)” showed an in vitro biopotency: inhibition of ACTH secretion (times the Standard) of 33. Besides, the intrinsic CRF activity in [36] is < 3%.

The substance “(cyclo 30-33) D-Tyr^12, Glu^13, Lys^17,33, Nle^21,38, Glu^30, Asn^32, Arg^36 !-r/hCRF(12-41) (peptide)” returned an in vitro biopotency: inhibition of ACTH secretion (times the Standard) in assay [37] of 49.

In turn, “(cyclo 30-33) D-Tyr^12, Nle^21,38, Glu^30, Asn^32, Lys^33, Arg^36 !-r/hCRF (12-41) (peptide)” showed an in vitro biopotency: inhibition of ACTH secretion (times the Standard) in assay [38] of 79.

On to “(cyclo 30-33) D-Tyr^12, Nle^21,38, Glu^30, Lys^33 !-r/hCRF(12-41) (peptide)”, for which the in vitro biopotency: inhibition of ACTH secretion (times the Standard) in assay [39] worked out at 5.6. In assay [40], this substance showed a negative logarithm of the Kd (pKd) of 8.70.

With “(cyclo 30-33) I^125 -D-Tyr^12, Glu^30, Lys^33, Nle^21,38 !-r/hCRF(12-41) (peptide)”, in assay [41], the pKd is 8.70.

As a reminder, the pKd is the negative decadic logarithm of the Kd, by convention in mol/L. Low readings indicate a large Kd, high ones a small Kd.
